In publication PMC11641776, “Biophysical Characterization of a Novel Phosphopentomutase from the Hyperthermophilic Archaeon Thermococcus kodakarensis” (International Journal of Molecular Sciences, 2024):

Target: the molecule itself
Experiment: SEC; HiLoad 16/60 Superdex 200 Prep Grade column, 50 mM HEPES pH 7.0, 200 mM NaCl; elution at 61 mL, compared with standards

B1: Phosphopentomutase from Thermococcus kodakarensis (PPMTk) (enzyme)
chain: RLFGTAGIRGTLWEKVTPELAMKVGMAVGTYKSGKALVGRDGRTSSVMLKNAMISGLLSTGMEVLDADLIPTPALAWGTRKLADAGVMITASHNPPTDNGVKVFNGDGTEFYVEQERGLEEIIFSGNFRKARWDEIKPVRNVEVIPDYINAVLDFVGHETNLKVLYDGANGAGSLVAPYLLREMGAKVLSVNAHVDGHFPGRKPEPRYENIAYLGKLVRELGVDLAIAQDGDADRIAVFDEKGNYVDEDTVIALFAKLYVEEHGGGTVVVSIDTGSRIDAVVERAGGRVVRIPLGQPHDGIKRYKAIFAAEPWKLVHPKFGPWIDPFVTMGLLIKLIDENGPLSELVKEIPTYYLKKANVLCPDEYKAEVVRRAAEEVERKLSSEIKEVLTISGFRIALNDGSWILIRPSGTEPKIRVVAEAPTEKRRDELFEMAYSTVSRIVKEAEKK
notes: Phosphopentomutase PPMTk of Thermococcus kodakarensis, encoded by open reading frame TK1777; UniProt entry Q6I7B6; residues 3-447 are modelled in each of the four protomers of the crystal structure; the tag was cut off with TEV protease before SEC and the later analyses; also called TK1777; Tk1777; not shown: His6, N-terminal, cleaved
  stoichiometry N: 4
